Assay [1] deals with T1, His-tagged c-Myc (human, UniProt P01106 1-454, labelled with the NT-647-NHS dye).
T1 construct: c-Myc; plasmid constructed by Tsingke Biotechnology Co., Ltd. (Beijing); also called recombinant c-Myc protein; source: bacterial BL21 cells, purified (Ni-NTA agarose)
Kind of assay: MST; as the MST of MDK and c-Myc, after the addition of 1 µM ACT001. The following applies: both partners purified.

Assay [2] concerns the target T1, His-tagged c-Myc. The assay is described as follows: MST; Monolith NT.115; NT-647-NHS-labelled c-Myc held constant (416 nM stock mixed 1:1), MDK in 16 serial dilutions; PBSP (1x PBS + 0.1% Pluronic F-127); standard treated capillaries. The following applies: both partners purified.

Kd data for one molecule are collected here from publication PMC12137620, “Targeting the MDK/c‐Myc complex to overcome temozolomide resistance in glioma” (Clinical and Translational Medicine, 2025).

T1 sequence (P01106 whole entry): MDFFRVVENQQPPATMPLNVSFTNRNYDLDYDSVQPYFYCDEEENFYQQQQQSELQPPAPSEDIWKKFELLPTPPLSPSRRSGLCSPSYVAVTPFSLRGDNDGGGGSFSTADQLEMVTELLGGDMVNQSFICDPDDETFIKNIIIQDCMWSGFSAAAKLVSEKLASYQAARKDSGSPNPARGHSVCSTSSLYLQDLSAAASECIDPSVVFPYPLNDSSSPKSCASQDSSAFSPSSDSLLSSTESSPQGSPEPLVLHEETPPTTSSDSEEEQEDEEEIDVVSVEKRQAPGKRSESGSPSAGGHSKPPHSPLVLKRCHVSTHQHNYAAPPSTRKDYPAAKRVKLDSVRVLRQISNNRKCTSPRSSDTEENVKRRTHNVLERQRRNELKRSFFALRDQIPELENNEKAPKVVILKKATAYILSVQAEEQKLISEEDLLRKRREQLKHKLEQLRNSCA

B1: Recombinant human MDK protein (natural protein, UniProt P21741 21-143, looked up)
chain: VAKKKDKVKKGGPGSECAEWAWGPCTPSSKDCGVGFREGTCGAQTQRIRCRVPCNWKKEFGADCKYKFENWGACDGGTGTKVRQGTLKKARYNAQCQETIRVTKPCTPKTKAKAKAKKGKGKD
notes: recombinant human midkine, bought; also called midkine; source: bought: Zeye Biotechnology Corporation (ZY631H02P, Shanghai)
For B1, the Kd (as a rule, a measure of binding affinity in units of concentration) with His-tagged c-Myc [1] was 1540 nM; in the assay with His-tagged c-Myc [2], 18.8 nM.
